In patent publication US20090291083A1, “BARB4 TARGET, ANTIBODY DESIGNATED BARB4, BARB4 RELATED ANTIBODIES, AND METHODS OF MAKING AND USING SAME” (PATRYS LIMITED, priority 2008, published 2009):

Columns and labels:
[1] = tested on: membrane preparations of tumor cell line BXPC-3; test: Western blot on membrane preparations; format: binding, human; conditions: BXPC-3 membrane preparation; FIG. 6A
Procedure: For BARB4 target assays the established, human pancreatic adenocarcinoma cell line BXPC-3 was used. The adherent cells were grown to a confluence of about 90% in RPMI 1640 culture medium (PAA, Vienna) supplemented with 10% (V/V) FCS, 1% (V/V) glutamine and 1% (V/V) streptomycin/penicillin at 37° C. and a 7% CO2 atmosphere (HERA cell incubator, Heraeus, Hanau). Sterile tissue culture dishes 145/20 (greiner bio-one, Frickenhausen) were prepared with 1 ml cell suspension containing 2−3×10^6 cells/ml (suspension medium is equivalent to culture medium described above) and 50 ml supplemented RPMI 1640 medium. After three or four days the carcinoma cells could be harvested for membrane extract preparation. For this purpose, BXPC-3 cells were washed with phosphate-buffered saline (PBS; containing 0.137 M NaCl, 0.027 M KCl, 0.065 M Na2HPO4×2H2O, 0.015 M KH2PO4) and the adherent cells were scraped off the tissue culture dishes. The cell suspension was centrifuged (1500×g for 5 minutes at room temperature). The supernatant was removed and the pellet was washed again with PBS followed by a further centrifugation step (1500×g, 5 minutes at room temperature). Afterwards the supernatant was removed again. A single cell pellet includes carcinoma cells from 10 tissue culture dishes. It was immediately used for membrane extract preparation or stored at −20° C. […]

BxPC-3 = test: FACS analysis of cell surface binding, BARB4 and commercial TAF 15 antibody; set-up: species or system human; conditions: BARB4 100 ug/ml, TAF 15 antibody 25 μg/ml
Procedure: (§1) To further validate BARB4 target protein TAF 15, BARB4 and a commercial TAF 15 antibody (anti-human TAFII p68, Santa Cruz Biotechnology, sc-81121) were analyzed for binding to BxPC-3, HEK 293, A549 and HeLa cell lines. In brief, cells were trypsinized with cell dissociation solution (Sigma C5789), resuspended in complete medium (RPMI 1640, PAA, E15-039, 10% Fetal bovine serum, PAA, A15-151 and 1% Glutamine, PAA, M11-004) and set on 2×10^5/ml. After 30 minutes on ice, cells were dispersed at 1 ml per FACS-tube and washed once with ice-cold PBS by centrifugation with 500 g and 4° C. Staining was done with BARB4 (100 ug/ml) or the commercial TAF 15 (25 μg/ml) IgG antibodies, control IgGs (IgG lambda, or mouse IgG), or without antibody in 200 μl PBS. Cells were incubated with 25 μg/ml antibody in 100 μl for 30 minutes on ice, then washed with ice cold PBS and secondary antibody (anti mouse IgG-FITC, dianova 115-095-008) was applied at a dilution of 1:50 in 200 μl per tube. After another 30 minutes of incubation in the dark, cells were washed twice with PBS and analyzed by FACS. […] BARB4 target protein TAF 15 validation was then analyzed by immunoprecipitation of MKNcell extracts with BARB4 and subsequent Western blotting with either BARB4 or anti-TAF 15 antibodies (Biomol, A300-308A; or Aviva, ARP30111_T100).

A549 = test: as above; set-up: species or system human; conditions: BARB4 100 ug/ml, TAF 15 antibody 25 μg/ml
Procedure: as §1

[2] = tested on: human pancreas carcinoma cell-line BXPC-3; test: Immunofluorescence, endocytosis of conjugated BARB4; format: cell-based; conditions: 40 μg/ml conjugated antibody, 37° C., 30 minutes after binding
Procedure: Endocytosis was determined for BARB4 on human pancreas carcinoma cell-line BXPC-3. BARB4 antibody (purified) was conjugated with Fluorescent orange 548 reactive (Fluka, Buchs, Switzerland). Conjugated BARB4 antibody at a final concentration of 40 μg/ml was directly given to 1×10^6 cells and incubated for indicated times at 37° C. Cells were harvested, rinsed and resuspended in phosphate buffer saline pH 7,4 (PBS). 100 μl of each cell suspension was fixed on slides. Finally the slides were mounted with Fluorescent Mounting Medium (DakoCytomation, Carpinteria, USA) and analyzed by confocal microscopy. The data is illustrated in FIG. 4.

B1: BARB4: human IgG antibody produced by hybridoma DSMZ Deposit No. DSM ACC2876; heavy chain SEQ ID NOs:1, 3, 5, 7, light chain SEQ ID NO:9 (antibody, V domains shown)
VH: QVQLVESGGGVVQPGRSLRLSCAASGFRFTTHGMHWVRQAPGKGLEWVAVISYNGRNKYYADYVNGRFTISRDDSRDTVFLQMNSLRPEDTAMYYCAKVRGDGYGDYGYFDYWGHGTLVSVSS
VL: QSALTQPRSVSGSPGQSVTISCTGTYNYVSWYQQHPGKAPKLMIFDVSRRSSGVPDRFSGSKSGNTASLTISGLQAEDEADYYCCSYGGTYLYVFGTGTTVTVLGQ
In the case of B1, the “binding on Western blots with membrane preparations” value [1] is reported as “binds to a membrane molecule with a relative molecular mass between 70 and 85 kD”, the “FACS binding to the cell surface” value (BxPC-3) is reported as “binding” and the “FACS binding to the cell surface” value (A549) is reported as “binding”. The “endocytosis of antibody by cells (immunofluorescence)” value [2] was “endocytosis”.
